The subject of one assay is E. coli O14. Kind of assay: bactericidal activity, incubation with E. coli O14 (Example 3, exp. I and III). The assay is classed as cell-based. As to the method: (§1) Human lactoferrin (hLF), peptide 3, and peptide 4, respectively, were incubated with two different strains of E. coli, E. coli O14 (experiment I) and O6K5 (experiment II), in diluted growth medium ( 1/100 BHI—brain heart infusion) for 2 hours. The peptides were also incubated with E. coli O14 in 0.05 mM KCl (pH 7) without any growth medium (experiment III). Different concentrations of the peptides were tested.
(§2) After the incubation, samples were taken for bacterial plating. Serial dilutions of five- and fourfold steps were used in experiments I and II, respectively, and of twofold steps in experiment III.
(§3) The concentrations of the different peptides required for killing 100% (experiments I and II) or 90% (experiment III) of the bacteria are given in table 2.

For assay [1], the system named is E. coli O6K5. Kind of assay: bactericidal activity, incubation with E. coli O6K5 (Example 3, exp. II). The assay is classed as cell-based. The settings on record: Exp. II: 100% killing, E. coli O6K5, 1/100 BHI, 2 hours. As to the method:
as §1, §2, §3

The subject of assay [2] is Candida albicans. The experiment in a line: fungicidal activity against Candida albicans strains (Example 4). Type of assay: cell-based. How it is done:
(§4) In this example the fungicidal activity of the peptides according to the invention was tested and compared to the fungicidal activity of human lactoferrin. Different concentrations of hLF, peptide 3 and peptide 4 were incubated with different strains of Candida albicans and Candida krusei during 1-2 hours at 37° C. in 0.05 mM KCl at pH 7.0 at two different occasions—experiment I and II, respectively. After incubation samples were taken for plating on Saboroud plates.

The next assay has as its system Candida krusei. The experiment in a line: fungicidal activity against Candida krusei strains (Example 4). Type of assay: cell-based. The following applies: Exp. I. As to the method: as §4
Assay [3] concerns LPS-induced IL-6 response in a monocytic cell line (THP-1). Kind of assay: inhibition of LPS-induced IL-6 response in THP-1 cells (Example 5). Type of assay: cell-based. The settings on record: IL-6 response in THP-1 cells, agent added 30 minutes after LPS. As to the method:
In this example an in vitro test was performed to study the anti-inflammatory activity of the peptides according to the invention. More precisely, the inhibitory effect of the peptides according to the invention on the LPS-induced IL-6 response in a monocytic cell line (THP-1) was studied and compared to the effect of human lactoferrin by use of the method described by I. Mattsby-Baltzer et al., Pediatr. Res. 40:257-262, 1996. The IL-6 response in the THP-1 cells was induced by addition of LPS. hLF, peptide 3 and peptide 4, respectively, were added 30 minutes after LPS.

In assay [4] the test system is E. coli O6K5. The experiment in a line: urinary tract infection in mice, bacteria (CFU) in kidney (Example 6). Type of assay: in vivo. The settings on record: Exp II, mouse strain C3H/Tif, 500 μg per mouse orally 30 minutes after instillation, 24 hours. How it is done: E. coli O6K5 was instilled into the urinary bladder of mice. 30 minutes after instillation the different agents specified in table 5 were administered orally in an amount of 500 μg per mouse and 24 hours after instillation the number of bacteria (CFU) present in bladder and in kidney was determined.
The control group consisted of 10 animals in experiment I and of 23 animals in experiment II. The animals in the control groups were given tap water instead of peptide or hLF.

Assay [5] has as its system Candida albicans. Kind of assay: fungicidal activity against Candida albicans, comparison with EP-A-0 629 347 peptides (Example 7). The assay is classed as cell-based. The following applies: C. albicans, I (tenfold steps). As to the method: In this example an in vitro test was performed to compare the bactericidal and fungicidal activity of the peptides according to the invention with peptides described in EP-A-0 629 347. The peptide according to the invention used was peptide 4, and the peptides according to EP-A-0 629 347 called Morinaga 10, Morinaga 11, Morinaga 12, and Morinaga 13.
The peptides were incubated with E. coli O14 and Candida albicans. Two concentrations of C. albicans yeast cells were tested, 5·10^6 and 5·10^3 per ml. Different concentrations of the peptides were tested.
After the incubation, samples were taken for bacterial plating. Serial dilutions of tenfold steps were used in the experiments marked with I in table 5 and of twofold steps in the experiments marked with II.

The subject of a further assay is C. albicans (ATCC 64549). Kind of assay: microbe, parasite or virus in culture. The settings on record: C. albicans ATCC 64549, 2×10^5 cells/ml, BHI diluted 1/100. How it is done: In the examples, the minimal microbicidal concentrations (MMC) and minimal inhibitory concentrations (MIC) were determined as follows, unless otherwise specified in the examples. Bacterial or fungal strains were cultured in BHI medium over night at 37° C. A volume of the culture was transferred to a new tube with BHI and incubated for two more hours. Thereafter the cells were spun down and the pellet was suspended in BHI medium diluted 1/100 (1% BHI). The concentration of bacterial or fungal cells was spectrophotometrically determined at 650 nm. The microbial concentrations were also determined by viable counts. Peptides serially diluted in 1% BHI by twofold or tenfold steps were added in triplicate to the wells of a microtiterplate (200 μl per well). The bacterial or fungal cell solutions were added in 10 μl volumes to give a final concentration of approximately 1-5×10^5 cells per ml in the well. The microplate was incubated at 37° C. in a humid chamber for two hours. […] The microplate was incubated for another 20 hours at 37° C. and thereafter analysed spectrophotometrically at 650 nm in a microplate reader (Emax, Molecular Devices, USA). […] The MIC value was defined as the concentration giving no increase in the absorbance value above the background level after 20 hours of incubation. […]

B1: human lactoferrin (protein, UniProt P02788 20-710, looked up)
Lactotransferrin: GRRRSVQWCAVSQPEATKCFQWQRNMRKVRGPPVSCIKRDSPIQCIQAIAENRADAVTLDGGFIYEAGLAPYKLRPVAAEVYGTERQPRTHYYAVAVVKKGGSFQLNELQGLKSCHTGLRRTAGWNVPIGTLRPFLNWTGPPEPIEAAVARFFSASCVPGADKGQFPNLCRLCAGTGENKCAFSSQEPYFSYSGAFKCLRDGAGDVAFIRESTVFEDLSDEAERDEYELLCPDNTRKPVDKFKDCHLARVPSHAVVARSVNGKEDAIWNLLRQAQEKFGKDKSPKFQLFGSPSGQKDLLFKDSAIGFSRVPPRIDSGLYLGSGYFTAIQNLRKSEEEVAARRARVVWCAVGEQELRKCNQWSGLSEGSVTCSSASTTEDCIALVLKGEADAMSLDGGYVYTAGKCGLVPVLAENYKSQQSSDPDPNCVDRPVEGYLAVAVVRRSDTSLTWNSVKGKKSCHTAVDRTAGWNIPMGLLFNQTGSCKFDEYFSQSCAPGSDPRSNLCALCIGDEQGENKCVPNSNERYYGYTGAFRCLAENAGDVAFVKDVTVLQNTDGNNNEAWAKDLKLADFALLCLDGKRKPVTEARSCHLAMAPNHAVVSRMDKVERLKQVLLHQQAKFGRNGSDCPDKFCLFQSETKNLLFNDNTECLARLHGKTTYEKYLGPQYVAGITNLKKCSTSPLLEACEFLRK
Consider B1, for which the “Concentration of agent for 100%/90% killing” value in the assay with E. coli O14 (Exp. I: 100% killing, E. coli O14, 1/100 BHI, 2 hours) is 400 µg/mL; with E. coli O14 (Exp. III: 90% killing, E. coli O14, 0.05 mM KCl (pH 7) without growth medium), above 4000 µg/mL; with E. coli O6K5 [1], 2000 µg/mL. For the same molecule, the “Concentration of agent for 99% killing” value with Candida albicans [2] (Exp. I, C. albicans ATCC 64549, 0.05 mM KCl pH 7.0, 1-2 hours 37° C.) is above 50 µg/mL; in the assay on Candida albicans [2] (Exp. I, C. albicans CCUG 90028, 0.05 mM KCl pH 7.0) it was above 50 µg/mL; in the assay with Candida albicans [2] (Exp. II, C. albicans ATCC 64549, 0.05 mM KCl pH 7.0), above 200 µg/mL; with Candida albicans [2] (Exp. II, C. albicans CCUG 599, 0.05 mM KCl pH 7.0), above 200 µg/mL; in the assay with Candida albicans [2] (Exp. II, C. albicans CCUG 1759, 0.05 mM KCl pH 7.0), above 200 µg/mL; in the assay on Candida krusei (C. krusei CCUG 969, 0.05 mM KCl pH 7.0), 25 µg/mL. In addition, in the assay on Candida krusei (C. krusei CCUG 35849, 0.05 mM KCl pH 7.0), the “Concentration of agent for 99% killing” value was 12.5 µg/mL. The “% inhibition of LPS response” value in assay [3] worked out at 15%. Besides, in the assay on E. coli O6K5 [4], the “Statistical comparison of treatment group with control group of the number of bacteria, CFU, present in kidney (p, Mann-Whitney)” value was “p = 0.006”. In addition, the “Concentration of agent for 100% killing” value with Candida albicans [5] (5 · 10^3 yeast cells per ml) was above 2000 µg/mL; in the assay with Candida albicans [5] (5 · 10^6 yeast cells per ml), above 1000 µg/mL. Moreover, the MIC in the assay on C. albicans (ATCC 64549) was determined as 1000 µg/mL. Also, the MMC99% with C. albicans (ATCC 64549) was above 1000 µg/mL.

The record behind these values is patent US7803757B2, “Peptides based on the sequence of human lactoferrin and their use” (PharmaSurgics in Sweden AB, priority 1998, dated 2010).
